Among the data in the supplement of paper PMC10126150 are switch fluorescence ratio values, retold here.

± gives the standard deviation of the averaged measurements.

The series deals with ATP. Nature of the series: switch fluorescence ratio, 500 uM ATP over buffer (Cy3 cluster intensity, sum of 5 cycles each) (fold (ratio)); higher = stronger signal-on switching upon ATP binding; sequences stand for … in TCGTCGGCAGCGTCAGATGTGTATAAGAGACAGTTTTTTTTTTTTTTTTTTTTTTTTT…TC. The following applies: aptamer strand: ATP DNA aptamer (quencher-CACCTGGGGGAGTATTGCGGAGGAAGG + anchor), 100 nM annealed; ATP concentration: 500 uM. In outline:
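Cy3-labelled switching-strand clusters on a modified Illumina MiSeq flow-cell were annealed to 100 nM quencher-labelled ATP aptamer and imaged first in selection buffer, then after 15 min with 500 uM ATP at 22 °C. NaOH stripping and re-annealing separated each of five buffer/ATP cycles, and clusters outside 100-1000 RFU were excluded. The fluorescence ratio sums target-cycle Cy3 intensity over buffer-cycle Cy3 intensity per cluster and averages it per switch-domain sequence.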
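Note: ATP exposure 15 min at 22 °C before imaging.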

Take TGATAAAGAT: the switch fluorescence ratio was found to be 1.02 ± 0.034.
Take TGATAAATAC: the switch fluorescence ratio was found to be 1.33 ± 0.069.
Then TGATAATTTA, with 1.06 ± 0.016.
Then TGATACCATG, with 0.997 ± 0.018; and TGATAGCCAG, with 0.9605 ± 0.0072.
Then TGATAGGGCG, with 0.963 ± 0.08; and TGATATAAGC, with 1.03 ± 0.015.
For TGATATCAAG, the switch fluorescence ratio was determined as 0.979 ± 0.013.
Then TGATATGGGA, with 1.01 ± 0.03; and TGATATTGTG, with 0.994 ± 0.024.
Then TGATATTTGT, with 1.01 ± 0.027; and TGATCAGATC, with 1 ± 0.026.
For the sequence TGATCATATT, the switch fluorescence ratio was found to be 1.024 ± 0.0079.
The value for TGATCCCGGG was 0.93018 ± 0.00028; that for TGATCGCTTT was 1.026 ± 0.01; that for TGATCGGGCG was 1.04 ± 0.02.
On to TGATCTTGGA, for which the switch fluorescence ratio stood at 1.06 ± 0.055.
The value for TGATCTTGTT was 0.9619 ± 0.0037; that for TGATGAAAGG was 0.987 ± 0.031.
Then TGATGAAATT, with 1.02 ± 0.036; and TGATGAGGAG, with 0.996 ± 0.014; and TGATGAGGAT, with 1.007 ± 0.0083.
On to TGATGAGGGT, for which the switch fluorescence ratio came out at 1.02 ± 0.02.
TGATGATATG: the switch fluorescence ratio worked out at 0.9929 ± 0.0094.
The value for TGATGCCGCT was 1.07 ± 0.083; that for TGATGCGGGT was 0.98723 ± 6.3e-05; that for TGATGCGTGT was 0.999 ± 0.027.
The value for TGATGCTCGG was 0.996 ± 0.069; that for TGATGGATGA was 1.01 ± 0.02; that for TGATGGGACT was 1.01 ± 0.029.
The value for TGATGGGAGT was 0.983 ± 0.014; that for TGATGGGGGT was 1.04 ± 0.042; that for TGATGGGTTT was 0.971 ± 0.043.
Regarding TGATGGTCGA, the switch fluorescence ratio was 1.02 ± 0.032.
With TGATGTAACG, the switch fluorescence ratio was 1.012 ± 0.0082.
Then TGATGTACGT, with 1 ± 0.011; and TGATGTGGGG, with 0.97 ± 0.029; and TGATGTTGAC, with 1 ± 0.013.
Then TGATGTTTGA, with 0.9947 ± 0.0094; and TGATTAGAAG, with 0.985 ± 0.034; and TGATTCAAAG, with 1.01 ± 0.035.
The value for TGATTCAAAT was 1.02 ± 0.0087.
Take TGATTGAGGG: the switch fluorescence ratio was determined as 0.9572 ± 0.0056.
Then TGATTGGAGG, with 0.994 ± 0.038; and TGATTGGGTC, with 1.02 ± 0.036; and TGATTGGTGT, with 1.02 ± 0.011.
The value for TGATTGTGGG was 1.03 ± 0.033.
The value for TGATTTATGA was 0.9924 ± 0.0067.
As for TGATTTGAAG, the switch fluorescence ratio came out at 0.9464 ± 0.007.
Then TGATTTTGAG, with 1.01 ± 0.018; and TGATTTTGGG, with 0.997 ± 0.035.
The value for TGATTTTGTC was 0.9932 ± 0.0028; that for TGATTTTTAC was 1.08 ± 0.092; that for TGATTTTTTG was 0.969 ± 0.03.
Then TGCAAAAGGC, with 0.972 ± 0.013.
Consider TGCAAAATTT, for which the switch fluorescence ratio turned out to be 0.995 ± 0.018.
Then TGCAAACCTT, with 2.39 ± 0.047.
The value for TGCAACCTCA was 1.09 ± 0.043.
Then TGCAAGCGGG, with 0.985 ± 0.027.
With TGCAAGGGGG, the switch fluorescence ratio is 1.06 ± 0.077.
Then TGCAAGGGGT, with 1.14 ± 0.16; and TGCAAGGTCG, with 1.03 ± 0.031; and TGCAAGTACA, with 1.41 ± 0.063.
Then TGCAAGTGGT, with 1.54 ± 0.75; and TGCAAGTTTG, with 1 ± 0.017; and TGCAATATTT, with 1.31 ± 0.02.
Then TGCAATGCAC, with 1.558 ± 0.0038; and TGCAATTAAC, with 3.51 ± 0.17.
With TGCAATTGTA, the switch fluorescence ratio was determined as 1.0195 ± 0.00099.
The value for TGCACCAGG was 3.29 ± 0.44; that for TGCAGCTAGC was 1.05 ± 0.021.
TGCAGGGGTA: the switch fluorescence ratio amounted to 1.12 ± 0.2.
On to TGCAGGGTTG, for which the switch fluorescence ratio was determined as 0.99591 ± 0.00085.
Consider TGCATACAGT, for which the switch fluorescence ratio was found to be 1.03 ± 0.046.
The value for TGCATATGGG was 0.978 ± 0.0058.
For the sequence TGCATGGCAA, the switch fluorescence ratio is 1.03 ± 0.013.
The value for TGCATGTTTG was 0.975 ± 0.056.
Then TGCATTATAC, with 3.59 ± 0.19; and TGCATTCAGT, with 0.99 ± 0.048; and TGCATTCTGA, with 1.02 ± 0.025.
The value for TGCATTGGTG was 1.018 ± 0.0019.
As for TGCATTGTTT, the switch fluorescence ratio turned out to be 0.999 ± 0.015.
For TGCATTTTGT, the switch fluorescence ratio came to 0.989 ± 0.018.
The value for TGCCACAGCA was 1.02 ± 0.025.
Then TGCCATCCTA, with 0.9913 ± 0.005; and TGCCCATGAT, with 0.963 ± 0.018; and TGCCCCGCCT, with 0.996 ± 0.044.
The value for TGCCCCTTTT was 0.98 ± 0.013; that for TGCCCGGGGT was 1.05 ± 0.036.
For the sequence TGCCGAAAGC, the switch fluorescence ratio was 1.018 ± 0.0087.
Then TGCCGAAAGT, with 0.962 ± 0.033; and TGCCGAGGCC, with 0.977 ± 0.0077.
Turning to TGCCGCCTTG, the switch fluorescence ratio came out at 0.979 ± 0.024.
With TGCCGCTTCT, the switch fluorescence ratio stood at 1.02 ± 0.058.
Then TGCCGGACGA, with 1.065 ± 0.0037.
Then TGCCGGCGGG, with 0.9629 ± 0.0043; and TGCCGGCTGG, with 1.02 ± 0.053; and TGCCGGGTCT, with 0.988 ± 0.04.
The value for TGCCGTCGGC was 0.949 ± 0.06; that for TGCCTGCATT was 1.02 ± 0.011.
TGCCTTGCCA: the switch fluorescence ratio turned out to be 1 ± 0.012.
The value for TGCCTTTCGG was 0.9909 ± 0.0062; that for TGCGATGACT was 1.45 ± 0.65.
The value for TGCGATTCTG was 0.978 ± 0.032.
Then TGCGCAGCGG, with 1.005 ± 0.0094; and TGCGCTTCTA, with 0.98114 ± 0.00055; and TGCGGAAGGC, with 1.11 ± 0.013.
Turning to TGCGGAGGTT, the switch fluorescence ratio came to 1.019 ± 0.0037.
Then TGCGGCGAGG, with 1.016 ± 2e-05; and TGCGGGGCAG, with 1.04 ± 0.072; and TGCGGGGGCG, with 0.992 ± 0.038.
Then TGCGGGGGTG, with 1.05 ± 0.018; and TGCGGGGTGG, with 1.12 ± 0.072; and TGCGGGTGGT, with 1.035 ± 0.0014.
On to TGCGGTAGAA, for which the switch fluorescence ratio is 1.01 ± 0.024.
Then TGCGTATGAA, with 0.9796 ± 0.0097; and TGCGTCCAAG, with 1.02 ± 0.029; and TGCGTCGGTG, with 1.03 ± 0.049.
Then TGCGTCTGAT, with 1.001 ± 0.0082.
The value for TGCGTGAAAT was 0.9765 ± 0.0044.
